Assays:
patients with R/R NHL = conditions: human, in vivo; cited from earlier work
[1] = test system: patients with relapsed or refractory follicular lymphoma (R/R FL); experiment: Phase Ib/II study, FL dose-escalation phase: safety (adverse events, DLTs, RP2D) of G+Pola+V; format: in vivo; conditions: in combination with venetoclax 800 mg and obinutuzumab 1000 mg
Description: This Example describes a Phase Ib/II study evaluating the safety and efficacy of obinutuzumab (G) in combination with polatuzumab vedotin (Pola) and venetoclax (V) in patients with relapsed or refractory follicular lymphoma (R/R FL) and rituximab (R) in combination with polatuzumab vedotin and venetoclax in patients with relapsed or refractory diffuse large B-cell lymphoma (R/R DLBCL).
This Phase Ib/II, open-label, multicenter, non-randomized study evaluated the safety, efficacy, and pharmacokinetics of obinutuzumab (G)+Polatuzumab vedotin (Pola)+venetoclax (V) in patients with R/R FL and rituximab (R)+Pola+V in patients with R/R DLBCL.
This dose-escalation phase included FL patients only.
All patients enrolled in the dose-escalation phase received induction treatment, administered in 21-day cycles as shown in Table 1. […]
The observation period was based on evaluation of dose-limiting toxicities (DLTs) in cycle 1. […] If no additional DLTs were reported, the next dose could be evaluated. […]
Adverse events are assessed according to the adverse event severity grading scale for the NCI CTCAE (v4.0). […]
Laboratory assessments and adverse events (AEs) were assessed throughout the study, with complete blood counts performed on days 1, 8, and 15 of cycle 1, on day 1 of cycles 2-6, and monthly during maintenance treatment. […]

Substance | Incidence of Grade 3-4 neutropenia (patients with R/R NHL) [%] | Recommended Phase II dose (RP2D) [1] [mg/kg]
obinutuzumab | 5 | 
polatuzumab vedotin: anti-CD79b immunoconjugate, CAS Registry Number 1313206-42-6; humanized antibody conjugated to MMAE via mc-val-cit-PABC linker |  | 1.8

Source: patent US20230270875A1, “METHODS OF USING ANTI-CD79B IMMUNOCONJUGATES” (Genentech, Inc., priority 2020, published 2023)
